Measurements: patent publication US20110009343A1, “MODULATORS OF AMYLOID AGGREGATION” (Praecis Pharmaceuticals, Inc., priority 1995, published 2011)
Marks after values point to notes of the source that are not given here. Primed or numbered codes have the meaning given here. * marks the point of attachment. Adp″ = aminoethyldibenzofuranylpropanoic acid, NCCc1cccc2c1oc1c(CCC(=O)*)cccc12; NMeV = CN[C@H](C(=O)O)C(C)C; CA = not defined here

Columns and labels:
Aβ1-40 [1] = target: T1, Aβ1-40 (Homo sapiens, UniProt P05067); assay: Nucleation assay (turbidity, A405 nm); format: biochemical; conditions: Table V;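 further: synthetic Aβ monomer polymerization followed by turbidity in 96-well plates with continuous shaking, read every 15 minutes over 5 hours, compared against wells lacking test compound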
T1 construct: (β-AP1-40) was obtained commercially from Bachem (Torrance, Calif.); purchased Bachem (Torrance, Calif.)
T1 sequence (P05067 672-711): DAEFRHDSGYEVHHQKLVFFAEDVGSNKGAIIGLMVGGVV
Description: The nucleation assay is employed to determine the ability of test compounds to alter (e.g. inhibit) the early events in formation of β-AP fibers from monomeric β-AP. […] The time delay before polymerization of β-AP monomer can be quantified as well as the extent of formation of insoluble fiber by light scattering (turbidity). Polymerization reaches equilibrium when the maximum turbidity reaches a plateau. The turbidity of a solution of natural β-AP in the absence or presence of various concentrations of a β-amyloid modulator compound is determined by measuring the apparent absorbance of the solution at 405 nm (A405 nm) over time. The threshold of sensitivity for the measurement of turbidity is in the range of 15-20 μM β-AP. […] This assay can be performed using stirring or shaking to accelerate polymerization, thereby increasing the speed of the assay. Moreover the assay can be adapted to a 96-well plate format to screen multiple compounds.
HFIP-solubilized peptide is sonicated in a waterbath sonicator for 5 mM at highest setting, then evaporated to dryness under a stream of argon. The peptide film is resuspended in anhydrous dimethylsulfoxide (DMSO) at a concentration of 6.9 mg/ml (25× concentration), sonicated for 5 mM as before, then filtered through a 0.2 micron nylon syringe filter (VWR cat. No. 28196-050). Test compounds are dissolved in DMSO at a 100× concentration. […] Ten microliters of the mixture is then added to the bottom of a well of a Corning Costar ultra low binding 96-well plate (Corning Costar, Cambridge Mass.; cat. No. 2500). Ninety microliters of water is added to the well, the plate is shaken on a rotary shaken at a constant speed at room temperature for 30 seconds, an additional 100 μl of 2×PTL buffer (20 mM NaH2PO4, 300 mM NaCl, pH 7.4) is added to the well, the plate is reshaken for 30 seconds and a baseline (t=0) turbidity reading is taken by measuring the apparent absorbance at 405 nm using a Bio-Rad Model 450 Microplate Reader. The plate is then returned to the shaker and shaken continuously for 5 hours. Turbidity readings are taken at 15 minute intervals.
β-amyloid aggregation in the absence of any modulators results in enhanced turbidity of the natural β-AP solution (i.e., an increase in the apparent absorbance at 405 nm over time).
Accordingly a fold increase in lag time of 1.0 indicates no change in lag time, whereas numbers >1.0 indicate an increase in lag time. The “% inhibition of plateau”, which is a measure of the ability of the compound to decrease the total amount of aggregation, refers to the reduction of the final turbidity in the presence of the test compound expressed as a percent of the control without the test compound.

Aβ1-40 [2] = target: T1, Aβ1-40; assay: Seeded extension assay (thioflavin T fluorescence); format: biochemical; conditions: Table V; 25 mole % inhibitor
Description: The seeded extension assay can be employed to measure the rate of Aβ fiber formed in a solution of Aβ monomer following addition of polymeric Aβ fiber “seed”. The ability of test compounds to prevent further deposition of monomeric Aβ to previously deposited amyloid is determined using a direct indicator of β-sheet formation using fluorescence. In contrast with the nucleation assay, the addition of seed provides immediate nucleation and continued growth of preformed fibrils without the need for continuous mixing, and thus results in the absence of a lag time before polymerization starts. Since this assay uses static polymerization conditions, the activity of positive compounds in the nucleation assay can be confirmed in this second assay under different conditions and with an additional probe of amyloid structure.
In the seeded extension assay, monomeric Aβ140 is incubated in the presence of a “seed” nucleus (approximately ten mole percent of Aβ that has been previously allowed to polymerize under controlled static conditions). Samples of the solution are then diluted in thioflavin T (Th-T). The polymer-specific association of Th-T with Aβ produces a fluorescent complex that allows the measurement of the extent of fibril formation (Levine, H. (1993) Protein Science 2:404-410). In particular, association of Th-T with aggregated β-AP, but not monomeric or loosely associated β-AP, gives rise to a new excitation (ex) maximum at 450 nm and an enhanced emission (em) at 482 nm, compared to the 385 nm (ex) and 445 nm (em) for the free dye. Small aliquots of the polymerization mixture contain sufficient fibril to be mixed with Th-T to allow the monitoring of the reaction mixture by repeated sampling. A linear growth curve is observed in the presence of excess monomer. The formation of thioflavin T responsive β-sheet fibrils parallels the increase in turbidity observed using the nucleation assay.
To prepare the stock seed, 1 ml of the Aβ monomer preparation, is incubated for approximately 8 days at 37° C. and sheared sequentially through an 18, 23, 26 and 30 gauge needle 25, 25, 50, and 100 times respectively. 2 μl samples of the sheared material is taken for fluorescence measurements after every 50 passes through the 30 gauge needle until the fluorescence units (FU) plateau (approx. 100-150×). Test compounds are prepared by dissolving an appropriate amount of test compound in 1×PBS to a final concentration of 1 mM (10× stock). If insoluble, the compound is dissolved in 1/10 volume of DMSO and diluted in 1×PBS to 1 mM. A further 1/10 dilution is also prepared to test each candidate at both 100 μM and 10 μM.
To perform the seeded extension assay, each sample is set up with 50 μl of 200 μM monomer, 125 FU sheared seed (a variable quantity dependent on the batch of seed, routinely 3-6 μl) and 10 μl of 10× modulator solution. The sample volume is then adjusted to a final volume of 100 μl with 1×PBS. Two concentrations of each modulator typically are tested: 100 μM and 10 μM, equivalent to a 1:1 and a 1:10 molar ratio of monomer to modulator. The controls include an unseeded reaction to confirm that the fresh monomer contains no seed, and a seeded reaction in the absence of any modulators, as a reference to compare against candidate modulators. The assay is incubated at 37° C. for 6 h, taking 2 μl samples hourly for fluorescence measurements. To measure fluorescence, a 2 μl sample of Aβ is added to 400 μl of Thioflavin-T solution (50 mM Potassium Phosphate […] pH 7.5). The samples are vortexed and the fluorescence is read in a 0.5 ml micro quartz cuvette at EX 450 nm and EM 482 nm (Hitachi 4500 Fluorimeter).

[3] = 100 mole % inhibitor relative to Aβ1-40

Row | Substance | % Inucl'n (percent reduction in maximum observed turbidity) (Aβ1-40 [1]; 33 mol % inhibitor) | ΔLag (ratio of lag time with test compound to lag time of control) (Aβ1-40 [1]; 33 mole % inhibitor) | % Iext'n (percent reduction of thioflavin-T fluorescence) (Aβ1-40 [2]) [%] | % Inucl'n (percent reduction in maximum observed turbidity) (Aβ1-40 [1]; 100 mole % inhibitor) [%] | ΔLag (ratio of lag time with test compound to lag time of control) (Aβ1-40 [1]; [3])
1 | PPI-315: CA-HQKLVFF-nh2 (N-terminal CA cap; C-terminal amide) | 5** % | – | – | – | –
2 | PPI-380: CA-LVFF-oh | 72** % | 1.8 | 51 | – | –
3 | PPI-392: CA-VFFA-oh ({CA}-VFFA-OH; reading uncertain; also: printed as CA-VFFA-oh) | – | – | 10 | 76 | 2.0
4 | PPI-393: CA-LVF-oh | – | – | 0 | 1 | 1.3
5 | PPI-394: CA-VFF-oh ({CA}-Val-Phe-Phe-OH; reading uncertain; also: printed as CA-VFF-oh) | – | – | 0 | 55 | 1.8
6 | PPI-395: CA-FFA-oh ({CA}-Phe-Phe-Ala-OH; reading uncertain; also: printed as CA-FFA-oh) | – | – | 6 | 51 | 1.0
7 | PPI-403: h-DDIII(N-Me-Val)DLL(Adp)-HQKLVFF-oh ({H2N-Asp-Asp-Ile-Ile-Ile-NMeV-Asp-Leu-Leu-Adp″}-HQKLVFF-OH) | – | – | – | −75 | 1.4
8 | PPI-407: CA-LVFFK-oh | 100** % | – | – | – | –
9 | PPI-418: h-(Aic)-LVFFA-oh | 100** % | – | – | – | –
10 | PPI-429: CA-FFV-oh ({CA}-Phe-Phe-Val-OH; reading uncertain; also: printed as PPI-429: CA-FFV-oh) | – | – | 7 | −33 | 2.2
11 | PPI-430: CA-FFVL-oh ({CA}-FFVL-OH; reading uncertain; also: printed as PPI-430: CA-FFVL-oh) | – | – | 75 | 33 | 4.1
12 | PPI-438: CA-GFF-oh ({CA}-Gly-Phe-Phe-OH; reading uncertain; also: printed as PPI-438: CA-GFF-oh) | – | – | – | 0 | 1.0
